Data from patent US20090298167A1 (Pfizer, published 2009).

T1: human IL-2Rβ (human, UniProt P14784 27-239)
T1 construct: Bought
T1 sequence (looked up): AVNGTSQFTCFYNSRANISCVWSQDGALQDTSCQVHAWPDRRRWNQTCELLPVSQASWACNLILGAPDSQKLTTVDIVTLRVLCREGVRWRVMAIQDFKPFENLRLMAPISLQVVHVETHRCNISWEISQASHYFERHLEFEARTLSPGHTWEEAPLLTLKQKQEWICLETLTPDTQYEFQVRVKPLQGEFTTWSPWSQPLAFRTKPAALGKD

T2: human gamma common chain expressed on CHO cells (human, UniProt P31785 23-369)
T2 construct: whole, on cells; Control protein; also called human IL-2R-γ common subunit; human gamma (γ) common chain
T2 sequence (looked up): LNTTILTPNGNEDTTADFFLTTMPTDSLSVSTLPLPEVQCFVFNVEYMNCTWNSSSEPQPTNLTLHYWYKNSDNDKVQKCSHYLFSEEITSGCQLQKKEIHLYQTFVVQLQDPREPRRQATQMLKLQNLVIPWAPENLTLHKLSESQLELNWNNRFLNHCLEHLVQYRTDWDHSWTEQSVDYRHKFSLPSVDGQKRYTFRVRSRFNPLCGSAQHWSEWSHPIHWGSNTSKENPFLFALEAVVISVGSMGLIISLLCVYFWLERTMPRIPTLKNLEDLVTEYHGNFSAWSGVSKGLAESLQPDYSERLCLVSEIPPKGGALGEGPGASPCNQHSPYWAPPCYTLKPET


Columns and labels:
[1] = biological target: T1, human IL-2Rβ; experiment: BIACORE: antibody captured on anti-human IgG, 50 nM analyte injected
Description: (§1) The specificity of binding of a subset of transiently expressed anti-IL-21R binding proteins (here antibodies) was tested on a BIACORE™ 2000 surface plasmon resonance instrument. Anti-human-IgG, anti-murine immunoglobulin antibodies, and murine IL-21R-H/F were immobilized onto a research-grade carboxymethyl-dextran chip (CM5) using standard amine coupling. The sensor chip surface was activated with EDC/NHS for 7 min at a flow rate of 20 μl/min. The first flow cell was used as reference surface to correct for bulk refractive index, matrix effects, and nonspecific binding. […] Remaining activated groups were blocked with 1.0 M ethanolamine (pH 8.0). The molecular weights of the anti-human IgG and the anti-murine IgG were both 150 kD, and the molecular weight of the IL-21R monomer was 27 kD.
(§2) Conditioned media containing anti-IL-21R antibodies and antibody controls (murine anti-human IL-2Rβ and murine anti-human IL-4R(R&D Systems, Minneapolis, Minn.); human anti-human IL-13 (Wyeth, Cambridge, Mass.)) were diluted in HBS/EP buffer supplemented with 0.2% bovine serum and injected onto all four flow cells of the BIACORE™ chip, capturing 500-700 (RU) of antibody on the species-appropriate capture antibody. Following a 5 sec washing period, 50 nM solutions of a positive control protein (murine IL-21R-H/F), two human proteins related to IL-21R (human IL-2Rβ and human sIL-4R(R&D Systems)), or an unrelated His/FLAG-tagged protein (human IL-13-H/F), were injected over the captured antibodies on the chip. The association and dissociation phases were monitored for 120 and 180 sec, respectively, followed by two 5 μl injections of glycine (pH 1.5) to regenerate a fully active capturing surface. All binding experiments were done at 25° C. in HBS/EP buffer. Blank and buffer effects were subtracted for each sensorgram using double referencing.

[2] = biological target: T3, human IL-13-His/FLAG (human, UniProt P35225 35-146, limits assumed); experiment: as above
T3 construct: Unrelated His/FLAG-tagged control; also called human IL-13-H/F
T3 sequence (P35225 35-146 limits assumed): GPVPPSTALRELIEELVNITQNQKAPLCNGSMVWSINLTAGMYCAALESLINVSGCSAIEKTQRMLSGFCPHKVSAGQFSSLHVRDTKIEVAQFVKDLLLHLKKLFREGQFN
Description: as §1, §2

[3] = biological target: T4, human soluble IL-4R (human, UniProt P24394 26-231, limits assumed); experiment: as above
T4 construct: soluble; also called human sIL-4R
T4 sequence (P24394 26-231 limits assumed): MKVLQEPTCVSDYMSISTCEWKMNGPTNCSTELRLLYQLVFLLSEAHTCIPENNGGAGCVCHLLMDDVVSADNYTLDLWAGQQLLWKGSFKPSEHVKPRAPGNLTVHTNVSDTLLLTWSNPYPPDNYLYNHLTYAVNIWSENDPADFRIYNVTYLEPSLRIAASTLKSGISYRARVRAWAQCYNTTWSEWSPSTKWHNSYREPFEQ
Description: as §1, §2

[4] = biological target: T5, murine IL-21R expressed on cells (murine, UniProt Q9JHX3 20-529); experiment: cell-based or functional assay
T5 sequence (Q9JHX3 20-529 limits assumed): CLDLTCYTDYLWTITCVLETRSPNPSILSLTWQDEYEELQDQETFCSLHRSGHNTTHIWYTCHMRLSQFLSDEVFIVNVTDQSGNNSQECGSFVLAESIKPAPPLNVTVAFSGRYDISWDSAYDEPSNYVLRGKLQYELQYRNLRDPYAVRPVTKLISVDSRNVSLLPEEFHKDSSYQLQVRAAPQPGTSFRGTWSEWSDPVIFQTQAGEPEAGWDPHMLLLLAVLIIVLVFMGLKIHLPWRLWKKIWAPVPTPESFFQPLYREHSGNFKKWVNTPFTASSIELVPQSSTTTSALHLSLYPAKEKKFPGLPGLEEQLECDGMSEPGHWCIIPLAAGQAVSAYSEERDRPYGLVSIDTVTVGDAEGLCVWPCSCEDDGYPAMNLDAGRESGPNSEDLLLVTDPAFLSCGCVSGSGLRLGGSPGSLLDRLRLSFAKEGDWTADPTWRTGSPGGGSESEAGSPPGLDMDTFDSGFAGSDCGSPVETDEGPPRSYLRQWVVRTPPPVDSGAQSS

[5] = biological target: T6, human IL-21R expressed on cells (human, UniProt Q9HBE5 20-538); experiment: cell-based or functional assay
T6 sequence (Q9HBE5 20-538 limits assumed): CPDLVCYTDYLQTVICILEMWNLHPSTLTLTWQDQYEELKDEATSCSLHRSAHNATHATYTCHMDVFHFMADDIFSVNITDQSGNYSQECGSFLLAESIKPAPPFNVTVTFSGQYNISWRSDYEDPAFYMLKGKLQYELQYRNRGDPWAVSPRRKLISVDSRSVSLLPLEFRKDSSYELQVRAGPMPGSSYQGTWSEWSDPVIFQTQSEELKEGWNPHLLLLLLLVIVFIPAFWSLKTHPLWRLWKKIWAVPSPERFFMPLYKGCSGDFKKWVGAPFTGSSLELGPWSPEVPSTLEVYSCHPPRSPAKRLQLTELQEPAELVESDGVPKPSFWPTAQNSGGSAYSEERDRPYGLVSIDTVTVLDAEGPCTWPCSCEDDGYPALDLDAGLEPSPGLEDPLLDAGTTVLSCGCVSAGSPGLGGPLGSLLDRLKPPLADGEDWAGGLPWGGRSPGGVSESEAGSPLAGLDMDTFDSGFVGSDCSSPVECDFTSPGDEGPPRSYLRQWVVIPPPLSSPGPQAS

[6] = biological target: T2, human gamma common chain expressed on …; experiment: cell ELISA on transfected CHO cells, 13 nM IgG
Description: (§3) A subset of binding proteins was tested for binding to rat, cynomolgus monkey, human IL-21R, or human IL-2R-γ common subunit expressed transiently on the surfaces of CHO-PA-Dukx cells. Cells were transfected 48 hr prior to the assay. On the day of the assay, cells were washed gently 5× in PBS containing 0.9 mM CaCl₂ and 0.45 mM MgCl₂ (PBS/CaMg) on an automated plate washer (Titertek, Huntsville, Ala.), and blocked for 1 hr at RT in PBS/CaMg/5% nonfat dry milk. Conditioned media from transiently expressed anti-IL-21R IgGs were serially diluted in blocking buffer and added to the cells in the blocked plates for 1 hr at RT. Cells were washed 5× with PBS/CaMg and then incubated with horseradish peroxidase-conjugated anti-human IgG for 1 hr at RT. Cells were then washed 10× in PBS/CaMg and all of the wash buffer was removed. Cells were incubated with 100 μl TMB until the color reaction reached saturation, stopped with 100 μl of 0.18 M H₂SO₄, and read at A450 on a Perkin Elmer ENVISION™ plate reader.

[7] = biological target: T7, rat IL-21R expressed on cells (rat); experiment: cell ELISA on transfected CHO cells, 13 nM IgG
T7 construct: whole, on cells; Transiently transfected CHO-PA-Dukx cells
Description: as §3

[8] = biological target: T8, cynomolgus monkey IL-21R expressed on CHO cells (cynomolgus monkey); experiment: cell ELISA on transfected CHO cells, 13 nM IgG
T8 construct: whole, on cells
Description: as §3

[9] = biological target: T6, human IL-21R expressed on cells; experiment: cell ELISA on transfected CHO cells, 13 nM IgG
Description: as §3

[10] = biological target: T6, human IL-21R expressed on cells; experiment: cell-based or functional assay; remark: listed apart in the source
[11] = biological target: T5, murine IL-21R expressed on cells; experiment: cell-based or functional assay; remark: listed apart in the source
[12] = biological target: T6, human IL-21R expressed on cells; experiment: cell-based or functional assay; remark: listed apart in the source
[13] = biological target: T6, human IL-21R expressed on cells; experiment: cell-based or functional assay; remark: listed apart in the source
[14] = biological target: T5, murine IL-21R expressed on cells; experiment: cell-based or functional assay; remark: listed apart in the source
[15] = biological target: T7, rat IL-21R expressed on cells; experiment: cell-based or functional assay

Row | Binder | binding result [1] | binding result [2] | binding result [3] | Murine IL-21R-BaF3 Proliferation IC50 [4] [nM] | Human IL-21R-BaF3 Proliferation IC50 [5] [nM] | Human IL-21R-TF1 Proliferation IC50 [5] [nM] | A450 at 13 nM Ab in cell ELISA [6] [A450] | A450 at 13 nM Ab in cell ELISA [7] [A450] | A450 at 13 nM Ab in cell ELISA [8] [A450] | A450 at 13 nM Ab in cell ELISA [9] [A450] | Neutralization of T cell Proliferation IC50 (nM), human primary CD4+ T cells [10] [nM] | Murine IL-21R-BaF3 Neutralization IC50 [11] [nM] | Human IL-21R-BaF3 Neutralization IC50 [12] [nM] | Human IL-21R-TF1 Neutralization IC50 [12] [nM] | Neutralization of B cell proliferation IC50 [13] [nM] | Neutralization of T cell Proliferation IC50 (nM), murine primary CD8+ T cells [14] [nM] | IC50 (nM) experiment 1, rat T cell proliferation [15] [nM] | IC50 (nM) experiment 2, rat T cell proliferation [15] [nM]
1 | AbP (antibody, human IgG1, V domains shown, Human IgG1 triple-mutant (L234A, L235A, G237A); Framework limits derived; also called VHP/VL20; VHPTM/VL20) VH: QVQLQESGPGLVKPSETLSLTCAVSGYSISSGYYWGWIRQPPGKGLEWIGSISHTGNTYYNPPLKSRVTISVDTSKNQFSLKLSSVTAADTAVYYCARGGGISRPEYWGQGTLVTVSS VL: SSELTQDPAVSVALGQTVRITCQGDSLRTYYASWYQQKPGQAPVLVIYGKHKRPSGIPDRFSGSSSGNTASLTITGAQAEDEADYYCVSRSAKGNPHVLFGGGTQLTVL | no binding (tested: 50 nM) | no binding (tested: 50 nM) | no binding (tested: 50 nM) | 0.03 | 0.75 | 3.48 | 0.112 | 1.03 | 1.31 | 1.31 | 0.02 |  |  |  |  |  |  | 
2 | parental 18A5 antibody (antibody, V domains shown) VH: QVQLQESGPGLVKTSETLSLTCAVSGYSISSGYYWGWIRQPPGKGLEWIGSISHTGNTYYNPPLKSRVTISVDTSKNQFSLKLSSVTAADTAVYYCARGGGISRPEYWGKGTLVTVSS VL: SSELTQDPPVSVALGQTVTLTCQGDSLRTYYASWYQQKSGQAPILLLYGKHKRPSGIPDRFSGSTSGDTASLTITGAQAEDEADYYCNSRDSSGNPHVLFGGGTQLTVL |  |  |  |  |  |  |  |  |  |  | 1.42 | 177 | 1.71 | 14 | 1.86 | > 85 |  | 
3 | AbW (antibody, human IgG1, V domains shown) VH: QVQLQESGPGLVKPSETLSLTCAVSGYSISSGYYWGWIRQPPGKGLEWIGSISHTGNTYYNPPLKSRVTISVDTSKNQFSLKLSSVTAADTAVYYCARFMGFGRPEYWGQGTLVTVSS VL: SSELTQDPAVSVALGQTVRITCQGDSLRTYYASWYQQKPGQAPVLVIYGKHKRPSGIPDRFSGSSSGNTASLTITGAQAEDEADYYCVTRSVKGNPHVLFGGGTQLTVL |  |  |  |  |  |  |  |  |  |  |  |  |  |  |  |  | 159 | 94.7
4 | AbV (antibody, human IgG1, V domains shown) VH: QVQLQESGPGLVKPSETLSLTCAVSGYSISSGYYWGWIRQPPGKGLEWIGSISHTGNTYYNPPLKSRVTISVDTSKNQFSLKLSSVTAADTAVYYCARFMGFGRPEYWGQGTLVTVSS VL: SSELTQDPAVSVALGQTVRITCQGDSLRTYYASWYQQKPGQAPVLVIYGKHKRPSGIPDRFSGSSSGNTASLTITGAQAEDEADYYCVARSVVGNPHVLFGGGTQLTVL |  |  |  |  |  |  |  |  |  |  |  |  |  |  |  |  | 70.5 | 59.2
5 | AbT (antibody, human IgG1, V domains shown, Human IgG1 triple-mutant (L234A, L235A, G237A); Framework limits derived; also called VHP/VL9; VHPTM/VL9) VH: QVQLQESGPGLVKPSETLSLTCAVSGYSISSGYYWGWIRQPPGKGLEWIGSISHTGNTYYNPPLKSRVTISVDTSKNQFSLKLSSVTAADTAVYYCARGGGISRPEYWGQGTLVTVSS VL: SSELTQDPAVSVALGQTVRITCQGDSLRTYYASWYQQKPGQAPVLVIYGKHKRPSGIPDRFSGSSSGNTASLTITGAQAEDEADYYCVARSNKGNPHVLFGGGTQLTVL | no binding (tested: 50 nM) | no binding (tested: 50 nM) | no binding (tested: 50 nM) | 0.093 | 0.67 | 3.26 | 0.102 | 0.994 | 1.22 | 1.08 | 0.03 | 0.05 | 0.3 | 2.32 | 0.14 | 0.61 |  | 
6 | AbR (antibody, human IgG1, V domains shown, Purified form: human IgG1 double-mutant (L234A, G237A); Framework limits derived; also called VH3/VL18; VH3DM/VL18) VH: QVQLQESGPGLVKPSETLSLTCAVSGYSISSGYYWGWIRQPPGKGLEWIGSISHTGNTYYNPPLKSRVTISVDTSKNQFSLKLSSVTAADTAVYYCARFMGFGRPEYWGQGTLVTVSS VL: SSELTQDPAVSVALGQTVRITCQGDSLRTYYASWYQQKPGQAPVLVIYGKHKRPSGIPDRFSGSSSGNTASLTITGAQAEDEADYYCVTRSVKGNPHVLFGGGTQLTVL | no binding (tested: 50 nM) | no binding (tested: 50 nM) | no binding (tested: 50 nM) | 0.302 | 0.87 | 3.94 | 0.109 | 1.11 | 1.35 | 1.33 | 0.04 | 0.34 | 0.56 | 1.63 | 0.22 | 0.13 |  | 
